# Assay results as given in patent US20240117018A1.
# Legend:
# Test in all cases: cell-based or functional assay
# [1] = biological target: HIV-1 Env of pseudovirus 3817.v2.c59 (HIV-1)
# [2] = biological target: HIV-1 Env of pseudovirus 6811.v7.c18 (HIV-1)
# [3] = biological target: HIV-1 Env of pseudovirus 89-F1_2_25 (HIV-1)
# [4] = biological target: HIV-1 Env of pseudovirus BJOX010000.06.2 (HIV-1)
# [5] = biological target: HIV-1 Env of pseudovirus C1080.c03 (HIV-1)
# [6] = biological target: HIV-1 Env of pseudovirus CNE5 (HIV-1)
# [7] = biological target: HIV-1 Env of pseudovirus T251-18 (HIV-1)
# [8] = biological target: HIV-1 Env of pseudovirus X1193_c1 (HIV-1)
# [9] = biological target: HIV-1 Env of pseudovirus X1632_S2_B10 (HIV-1)
# [10] = biological target: HIV-1 Env of pseudovirus X2088_c9 (HIV-1)
substance,measurement,setting,value
10-1074 (antibody),IC50 neutralization (TZM.bl),[1],3.15 µg/mL
same,IC80 neutralization (TZM.bl),[1],14.9 µg/mL
same,IC50 neutralization (TZM.bl),[2],0.002 µg/mL
same,IC80 neutralization (TZM.bl),[2],0.01 µg/mL
same,IC50 neutralization (TZM.bl),[3],> 50 µg/mL
same,IC80 neutralization (TZM.bl),[3],> 50 µg/mL
same,IC50 neutralization (TZM.bl),[4],> 50 µg/mL
same,IC80 neutralization (TZM.bl),[4],> 50 µg/mL
same,IC50 neutralization (TZM.bl),[5],> 50 µg/mL
same,IC80 neutralization (TZM.bl),[5],> 50 µg/mL
same,IC50 neutralization (TZM.bl),[6],> 50 µg/mL
same,IC80 neutralization (TZM.bl),[6],> 50 µg/mL
same,IC50 neutralization (TZM.bl),[7],1.08 µg/mL
same,IC80 neutralization (TZM.bl),[7],7.39 µg/mL
same,IC50 neutralization (TZM.bl),[8],0.083 µg/mL
same,IC80 neutralization (TZM.bl),[8],0.475 µg/mL
same,IC50 neutralization (TZM.bl),[9],> 50 µg/mL
same,IC80 neutralization (TZM.bl),[9],> 50 µg/mL
same,IC50 neutralization (TZM.bl),[10],0.003 µg/mL
same,IC80 neutralization (TZM.bl),[10],0.014 µg/mL
10E8 (antibody),IC50 neutralization (TZM.bl),[1],1.18 µg/mL
same,IC80 neutralization (TZM.bl),[1],5.98 µg/mL
same,IC50 neutralization (TZM.bl),[2],7.54 µg/mL
same,IC80 neutralization (TZM.bl),[2],> 10 µg/mL
same,IC50 neutralization (TZM.bl),[3],1.11 µg/mL
same,IC80 neutralization (TZM.bl),[3],10 µg/mL
same,IC50 neutralization (TZM.bl),[4],0.341 µg/mL
same,IC80 neutralization (TZM.bl),[4],5.29 µg/mL
same,IC50 neutralization (TZM.bl),[5],0.061 µg/mL
same,IC80 neutralization (TZM.bl),[5],0.731 µg/mL
same,IC50 neutralization (TZM.bl),[6],1.41 µg/mL
same,IC80 neutralization (TZM.bl),[6],9.64 µg/mL
same,IC50 neutralization (TZM.bl),[7],2.36 µg/mL
same,IC80 neutralization (TZM.bl),[7],> 10 µg/mL
same,IC50 neutralization (TZM.bl),[8],0.497 µg/mL
same,IC80 neutralization (TZM.bl),[8],4.2 µg/mL
same,IC50 neutralization (TZM.bl),[9],1.98 µg/mL
same,IC80 neutralization (TZM.bl),[9],9.68 µg/mL
same,IC50 neutralization (TZM.bl),[10],> 10 µg/mL
same,IC80 neutralization (TZM.bl),[10],> 10 µg/mL
N49P9 (antibody),neutralization IC50,[1],1.09 µg/mL
same,neutralization IC80,[1],5.86 µg/mL
same,neutralization MPI,[1],100
same,neutralization IC50,[2],0.249 µg/mL
same,neutralization IC80,[2],1.2 µg/mL
same,neutralization MPI,[2],99
same,neutralization IC50,[3],> 50 µg/mL
same,neutralization IC80,[3],> 50 µg/mL
same,neutralization MPI,[3],23
same,neutralization IC50,[4],0.482 µg/mL
same,neutralization IC80,[4],2.34 µg/mL
same,neutralization MPI,[4],100
same,neutralization IC50,[5],0.119 µg/mL
same,neutralization IC80,[5],0.575 µg/mL
same,neutralization MPI,[5],100
same,neutralization IC50,[7],0.147 µg/mL
same,neutralization IC80,[7],0.517 µg/mL
same,neutralization MPI,[7],100
same,neutralization IC50,[8],0.025 µg/mL
same,neutralization IC80,[8],0.081 µg/mL
same,neutralization MPI,[8],100
same,neutralization IC50,[9],46.7 µg/mL
same,neutralization IC80,[9],> 50 µg/mL
same,neutralization MPI,[9],51
same,neutralization IC50,[10],0.07 µg/mL
same,neutralization IC80,[10],0.252 µg/mL
same,neutralization MPI,[10],100
N49P9.1 (antibody),neutralization IC50,[1],1.35 µg/mL
same,neutralization IC80,[1],8.26 µg/mL
same,neutralization MPI,[1],95
same,neutralization IC50,[2],0.398 µg/mL
same,neutralization IC80,[2],1.76 µg/mL
same,neutralization MPI,[2],97
same,neutralization IC50,[3],> 50 µg/mL
same,neutralization IC80,[3],> 50 µg/mL
same,neutralization MPI,[3],23
same,neutralization IC50,[4],0.883 µg/mL
same,neutralization IC80,[4],4.26 µg/mL
same,neutralization MPI,[4],100
same,neutralization IC50,[5],0.156 µg/mL
same,neutralization IC80,[5],0.939 µg/mL
same,neutralization MPI,[5],100
same,neutralization IC50,[6],0.183 µg/mL
same,neutralization IC80,[6],0.641 µg/mL
same,neutralization MPI,[6],100
same,neutralization IC50,[7],0.127 µg/mL
same,neutralization IC80,[7],0.352 µg/mL
same,neutralization MPI,[7],100
same,neutralization IC50,[8],0.042 µg/mL
same,neutralization IC80,[8],0.15 µg/mL
same,neutralization MPI,[8],100
same,neutralization IC50,[9],> 50 µg/mL
same,neutralization IC80,[9],> 50 µg/mL
same,neutralization MPI,[9],10
same,neutralization IC50,[10],0.091 µg/mL
same,neutralization IC80,[10],0.392 µg/mL
same,neutralization MPI,[10],100
N49P19 (antibody),neutralization IC50,[1],> 50 µg/mL
same,neutralization IC80,[1],> 50 µg/mL
same,neutralization MPI,[1],26
same,neutralization IC50,[2],1.3 µg/mL
same,neutralization IC80,[2],4.71 µg/mL
same,neutralization MPI,[2],97
same,neutralization IC50,[3],> 50 µg/mL
same,neutralization IC80,[3],> 50 µg/mL
same,neutralization MPI,[3],7
same,neutralization IC50,[4],4.16 µg/mL
same,neutralization IC80,[4],19.1 µg/mL
same,neutralization MPI,[4],96
same,neutralization IC50,[5],0.682 µg/mL
same,neutralization IC80,[5],3.05 µg/mL
same,neutralization MPI,[5],100
same,neutralization IC50,[6],0.748 µg/mL
same,neutralization IC80,[6],3.29 µg/mL
same,neutralization MPI,[6],100
same,neutralization IC50,[7],0.938 µg/mL
same,neutralization IC80,[7],4.2 µg/mL
same,neutralization MPI,[7],100
same,neutralization IC50,[8],0.54 µg/mL
same,neutralization IC80,[8],3.15 µg/mL
same,neutralization MPI,[8],99
same,neutralization IC50,[9],> 50 µg/mL
same,neutralization IC80,[9],> 50 µg/mL
same,neutralization MPI,[9],14
same,neutralization IC50,[10],1.4 µg/mL
same,neutralization IC80,[10],3.76 µg/mL
same,neutralization MPI,[10],99
PG9 (antibody),IC50 neutralization (TZM.bl),[1],0.02 µg/mL
same,IC80 neutralization (TZM.bl),[1],0.062 µg/mL
same,IC50 neutralization (TZM.bl),[2],> 50 µg/mL
same,IC80 neutralization (TZM.bl),[2],> 50 µg/mL
same,IC50 neutralization (TZM.bl),[3],0.668 µg/mL
same,IC80 neutralization (TZM.bl),[3],10.1 µg/mL
same,IC50 neutralization (TZM.bl),[4],0.154 µg/mL
same,IC80 neutralization (TZM.bl),[4],0.74 µg/mL
same,IC50 neutralization (TZM.bl),[5],0.004 µg/mL
same,IC80 neutralization (TZM.bl),[5],0.013 µg/mL
same,IC50 neutralization (TZM.bl),[6],0.018 µg/mL
same,IC80 neutralization (TZM.bl),[6],0.051 µg/mL
same,IC50 neutralization (TZM.bl),[7],> 50 µg/mL
same,IC80 neutralization (TZM.bl),[7],> 50 µg/mL
same,IC50 neutralization (TZM.bl),[8],0.105 µg/mL
same,IC80 neutralization (TZM.bl),[8],0.304 µg/mL
same,IC50 neutralization (TZM.bl),[9],0.107 µg/mL
same,IC80 neutralization (TZM.bl),[9],0.934 µg/mL
same,IC50 neutralization (TZM.bl),[10],> 50 µg/mL
same,IC80 neutralization (TZM.bl),[10],> 50 µg/mL
